The data set relates to CC(=O)Oc1ccc([N+](=O)[O-])cc1. The data set can be described thus: purified protein. The data set is classed as biochemical, uncultured bacterium pDL136. To be noted: 50 mM Tris pH 8.0, 30°C, ~2 nM enzyme, value in parentheses is standard error.

For the substance “EstDL136 (wild-type full-length) (uncultured bacterium pDL136)”, the Km is recorded as 0.14 (0.016) mM; the kcat – broadly, the maximal rate divided by the concentration of active sites – came out at 622 s⁻¹; the kcat/Km – broadly, the turnover number divided by the Michaelis constant – stood at 4.4e+06 M⁻¹ s⁻¹.

As to “EstDL136 (wild-type full-length) (uncultured bacterium pDL136; F214A)”, the Km is recorded as 0.55 (0.051) mM, the kcat was found to be 641 s⁻¹ and the catalytic efficiency (kcat/Km) turned out to be 1.2e+06 M⁻¹ s⁻¹.

For the substance “EstDL136 (wild-type full-length) (uncultured bacterium pDL136; L206A)”, the Km is given as 0.40 (0.030) mM, the kcat turned out to be 547 s⁻¹ and the kcat/Km worked out at 1.4e+06 M⁻¹ s⁻¹.

For the origin of these results see paper PMC6333409, “Crystal structure of chloramphenicol-metabolizing enzyme EstDL136 from a metagenome” (PLoS ONE, 2019).
